Entries after “also recorded” stand apart in the source; their conditions may differ.
Experiments:
[1] = target: T1, islet amyloid polypeptide (amylin) (Homo sapiens, UniProt P10997); experiment: Thioflavin T fluorometry, islet amyloid polypeptide (amylin) fibril formation; type: biochemical
T1 construct: The major protein in islet amyloid is a 37 amino acid peptide, termed islet amyloid polypeptide or amylin
T1 sequence (P10997 34-70): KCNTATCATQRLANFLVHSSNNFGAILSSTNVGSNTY

Aβ (1-40) = target: T2, Aβ (1-40) (Homo sapiens, UniProt P05067); experiment: Thioflavin T fluorometry, Aβ (1-40) amyloid fibril formation; type: biochemical; conditions: for dose dependence of inhibition of Aβ fibril formation, in words: 5 nM, 15 nM, 40 nM and 100 nM laminin, 1 week (FIG. 4); for fold inhibition of Aβ (1-40) amyloid fibril formation (fluorescence lower than Aβ alone): 37° C.; for fold decrease of Aβ fibrillogenesis: comparison study (FIG. 3); for inhibition of Aβ fibril formation, in words: dose study (FIG. 4), 3 days and 7 days
T2 construct: 2 μg of Aβ (1-40)(Bachem Inc., Torrance, Calif. USA; Lot #WM365); purchased Bachem Inc., Torrance, Calif; Lot #WM365
Protocol: The effects of laminin on Aβ fibrillogenesis was also determined using the previously described method of Thioflavin T fluorometry (Naiki et al, Lab. Invest. 65:104-110, 1991; Levine III, Protein Sci. 2:404-410, 1993; Levine III, Int. J. Exp. Clin. Invest. 2:1-6, 1995; Naiki and Nakakuki, Lab. Invest. 74:374-383, 1996). In this assay, Thioflavin T binds specifically to fibrillar amyloid and this binding produces a fluorescence enhancement at 480 nm that is directly proportional to the amount of amyloid fibrils formed (Naiki et al, Lab. Invest. 65:104-110, 1991; Levine III, Protein Sci. 2:404-410, 1993; Levine III, Int. J. Exp. Clin. Invest. 2:1-6, 1995; Naiki and Nakakuki, Lab. Invest. 74:374-383, 1996). In a first study, the effects of EHS laminin on Aβ (1-40) fibrillogenesis was assessed. For this study, 25 μM of freshly solubilized Aβ (1-40)(Bachem Inc., Torrance, Calif., USA; Lot #WM365) was incubated in microcentrifuge tubes at 37° C. for 1 week (in triplicate), either alone, or in the presence of 100 nM EHS laminin (Sigma Chemical Company, St. Louis, Mo., USA) in 100 mM Tris, 50 mM NaCl, pH 7.0 (TBS). 100 nM of laminin utilized for these studies represented a Aβ:laminin molar ratio of 250:1. 50 μl aliquots were then taken from each tube for analysis at 1 hr, 1 day, 3 days, and 1 week. In a second set of studies, the effects of laminin on Aβ (1 -40) fibril formation was directly compared to other basement membrane components including fibronectin, type IV collagen and perlecan. For these studies, 25 μM of freshly solubilized Aβ (1-40) was incubated in microcentrifuge tubes for 1 week (in triplicate) either alone, or in the presence of 100 nM of EHS perlecan (isolated as previously described)(Castillo et al, J. Biochem. 120:433-444, 1996), fibronectin (Sigma Chemical Company, St. Louis, Mo., USA) or type IV collagen (Sigma Chemical Company, St. Louis, Mo., USA). 50 ul aliquots were then taken for analysis at 1 hour, 1 day, 3 days and 1 week. In a third set of studies, 25 μM of freshly solubilized Aβ (1-40) was incubated in microcentrifuge tubes for 1 week (in triplicate) either alone, or in the presence of increasing concentrations of laminin (i.e. 5 nM, 15 nM, 40 nM and 100 nM). 50 μl aliquots were taken for analysis at 1 hour, 1 day, 3 days and 1 week.
For each determination described above, following each incubation period, Aβ peptides +/− laminin, perlecan, fibronectin or type IV collagen, were added to 1.2 ml of 100 μM Thioflavin T (Sigma Chemical Co., St. Louis, Mo.) in 50 mM phosphate buffer (pH 6.0). Fluorescence emission at 480 nm was measured on a Turner instrument-model 450 fluorometer at an excitation wavelength of 450 nm. For each determination, the fluorometer was calibrated by zeroing in the presence of the Thioflavin T reagent alone, and by seting the 50 ng/ml riboflavin (Sigma Chemical Co., St. Louis, Mo.) in the Thioflavin T reagent to 1800 fluorescence units. All fluorescence determinations were based on these references and any background fluorescence given off by laminin, perlecan, type IV collagen, or fibronectin alone in the presence of the Thioflavin T reagent was always subtracted from all pertinent readings.

T2 sequence (P05067 672-711 limits assumed): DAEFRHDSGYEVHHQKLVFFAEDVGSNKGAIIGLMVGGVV

laminin: Engelbreth-Holm-Swarm (EHS) mouse tumor laminin (Sigma); 850 kDa basement membrane glycoprotein of A, B1 and B2 chains
inhibition of amylin fibrillogenesis, in words ([1]; 40 nM, 15 nM and 5 nM laminin, 1 week (FIG. 6)): no significant inhibition | inhibition of amylin fibril formation, in words ([1]; 100 nM laminin, all time points within 1 week (FIG. 6)): did not significantly inhibit; also recorded: does not significantly inhibit | dose dependence of inhibition of Aβ fibril formation, in words (Aβ (1-40)): dose-dependent manner; also recorded: Significant dose-dependent inhibition | dose dependence of inhibition of Aβ fibril formation, in words (Aβ (1-40); listed as Laminin): dose-dependent manner | fold inhibition of Aβ (1-40) amyloid fibril formation (fluorescence lower than Aβ alone) (Aβ (1-40); 25 μM Aβ (1-40), 100 nM laminin, 1 week (FIG. 2)): 27.1 fold | fold inhibition of Aβ (1-40) amyloid fibril formation (fluorescence lower than Aβ alone) (Aβ (1-40); 25 μM Aβ (1-40), 100 nM laminin, 1 hour (FIG. 2)): 2.9 fold | fold inhibition of Aβ (1-40) amyloid fibril formation (fluorescence lower than Aβ alone) (Aβ (1-40); 25 μM Aβ (1-40), 100 nM laminin, 1 day (FIG. 2)): 4.6 fold | fold inhibition of Aβ (1-40) amyloid fibril formation (fluorescence lower than Aβ alone) (Aβ (1-40); 25 μM Aβ (1-40), 100 nM laminin, 3 days (FIG. 2)): 30.6 fold | effect on Aβ (1-40) fibrillogenesis, in words (Aβ (1-40); comparison of basement membrane components (FIG. 3), 25 μM Aβ (1-40), 100 nM, 1 hour to 1 week): potent inhibitory effect | fold decrease of Aβ fibrillogenesis (Aβ (1-40); 25 μM Aβ (1-40), 100 nM, 1 week): 21 fold | fold decrease of Aβ fibrillogenesis (Aβ (1-40); 25 μM Aβ (1-40), 100 nM, 1 day): 9 fold | fold decrease of Aβ fibrillogenesis (Aβ (1-40); 25 μM Aβ (1-40), 100 nM, 3 days): 9 fold | inhibition of Aβ fibril formation, in words (Aβ (1-40); 40 nM laminin): significantly inhibited | inhibition of Aβ fibril formation, in words (Aβ (1-40); 100 nM laminin, 1 hour, 1 day): significantly inhibited
